The numbers were not newly measured in publication PMC8538444, which cites them from elsewhere.

The target of this data set is SP-BN N-terminal saposin-like segment of the SP-B proprotein (Homo sapiens) (UniProt P07988).
Sequence of UniProt P07988 (P07988 65-147): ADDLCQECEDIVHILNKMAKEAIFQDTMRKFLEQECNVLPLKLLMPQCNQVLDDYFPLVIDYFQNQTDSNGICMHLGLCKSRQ

The term Kd denotes the free concentration of one partner at which half of the binding sites on the other are occupied at equilibrium, for simple one-to-one binding. With SP-A (from UniProt Q8IWL2), the Kd is 0.4 µM.
